# Measured values from paper PMC10548113, “Modeling a variant of unknown significance in the Drosophila ortholog of the human cardiogenic gene NKX2.5”.
# T1: MBP-Tin R321N HD (Drosophila melanogaster, UniProt P22711 301-360, R321N)
# T1 sequence: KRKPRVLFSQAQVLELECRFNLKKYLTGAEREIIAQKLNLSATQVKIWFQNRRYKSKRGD
# T2: MBP-Tin HD (WT) (Drosophila melanogaster, UniProt P22711 301-360)
# T2 sequence: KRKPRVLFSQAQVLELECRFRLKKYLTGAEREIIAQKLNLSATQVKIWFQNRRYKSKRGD
# Tests used:
# MBP-Tin R321N HD = target: T1, MBP-Tin R321N HD; assay: EMSA; 1.5 ug protein, equal to WT; EMSA: 40 mM KCl, 15 mM HEPES pH 7.9, 1 mM EDTA, 0.5 mM DTT, 5% glycerol, 4 ug poly-dIdC; temperature not stated; conditions: protein: recombinant; tags: N-terminal MBP; label: radioactive (probe); only one strand given
# MBP-Tin HD (WT) = target: T2, MBP-Tin HD (WT); assay: EMSA; 1.5 ug protein; competed by 300-fold excess unlabelled WT; EMSA: 40 mM KCl, 15 mM HEPES pH 7.9, 1 mM EDTA, 0.5 mM DTT, 5% glycerol, 4 ug poly-dIdC; temperature not stated; conditions: protein: recombinant; tags: N-terminal MBP; label: radioactive (probe); only one strand given
binder,measurement,setting,value
Mp Tin1 site (dsDNA) DNA 1: GGACTCTTTGGCTGAAGTGTCCGGTGAAA DNA 2: TTTCACCGGACACTTCAGCCAAAGAGTCC,binding signal,MBP-Tin R321N HD,7 % of WT band intensity
same,binding result,MBP-Tin HD (WT),binds
